Results reported in patent US20250263481A1 (SHIJIAZHUANG YILING PHARMACEUTICAL, published 2025).

How the values were obtained:
[1] = target: T1, human CLDN18.2 expressed on cells (human); experiment: flow cytometry (percent FITC-positive cells, GAH-FITC secondary) on CHO cells expressing huCLDN18.2
T1 construct: also called huCLDN18.2; CLDN18.2-expressing 293T cells
Description: CHO cells expressing huCLDN18.2 were used to assess the binding of the antibodies. Cells were seeded at 5×10⁵ cells per 100 μl into a well of a 96-well plate for each sample. Then, 100 μl of each serially diluted antibody was added to the cells, each dilution started at 40 µg/ml and was diluted 5-fold. Therefore, the final concentration of each antibody starts at 20 µg/ml followed by a 5-fold serial dilution. After 1 hour, the cells were washed twice and 100 μl of GAH-FITC (1:200 dilution) was added to each well. After 30 minutes, the cells were washed twice and resuspended in 120 μl of FACS buffer. The cells were analyzed via flow cytometry.
Unstained cells were used as a reference to set up overall target cell gating and to establish the FITC-negative populations, allowing us to establish the FITC-positive cell gate for each cell line. Additionally, the mean fluorescence intensity (MFI) of the entire population of cells was calculated to secondarily validate the FITC-positive results. The ratio of the gated positive cell number to the total live cell number is taken as the percentage of positive cells.

[2] = target: T1, human CLDN18.2 expressed on cells; experiment: cell-based or functional assay
[3] = target: T1, human CLDN18.2 expressed on cells; experiment: cell-based or functional assay; remark: listed apart in the source
[4] = target: T1, human CLDN18.2 expressed on cells; experiment: KinExA 4000, antibody constant, CHO cells over-expressing huCLDN18.2 titrated
Description: A KinExA 4000 instrument was also used to measure binding affinity of the antibodies to surface protein of intact cells, i.e., CHO cells over-expressing huCLDN18.2. Concentration of the antibodies was held constant (CBP) and concentration of whole cells with surface protein were varied (titrant). Concentration of whole cells with surface proteins were diluted three-fold. Titrated cells were incubated with the constant binding partner (CBP). Once equilibrium was reached, the samples were centrifuged, the supernatants were recovered, and the free CBP was detected with a fluorescently labeled anti-CBP molecule.
To establish a more accurate Kd, two equilibrium curves were prepared and analyzed. One curve with low concentration of CBP at 100 pM (200 pM binding sites) and 10⁶ cells/mL with three-fold dilutions, and one curve with high concentration of CBP at 10 nM (20 nM binding sites) and 10⁶ cells/mL with three-fold dilutions. The KinExA 4000 measured the amount of unbound CBP in solution. Analysis was performed using Sapidyne Instruments n-Curve Analysis Software version 4.4.26.

[5] = target: T1, human CLDN18.2 expressed on cells; experiment: cell-based or functional assay; remark: listed apart in the source
[6] = target: T1, human CLDN18.2 expressed on cells; experiment: cell-based or functional assay; remark: listed apart in the source
[7] = target: T1, human CLDN18.2 expressed on cells; experiment: cell-based or functional assay; remark: listed apart in the source

EC50 (read off the curve) [1]: ~0.6 ng/mL
ADCC, FACS: EC50 [2]: 0.0073 nM
ADCC, LDH: EC50 [2]: 0.012 nM
ADCC on KATOIII CLDN18.2 cells, LDH: EC50 (batch 1) [3]: 0.028 nM
ADCC on KATOIII CLDN18.2 cells, LDH: EC50 (batch 2) [3]: 0.018 nM
Kd [4]: 0.0094 nM
CDC on CT26 CLDN18.2 cells, LDH: EC50 (batch 1) [5]: 0.14 nM
CDC on CT26 CLDN18.2 cells, LDH: EC50 (batch 2) [5]: 0.12 nM
ADCC on NCI-N87 CLDN18.2 cells, LDH: EC50 (batch 1) [6]: 0.0067 nM
ADCC on NCI-N87 CLDN18.2 cells, LDH: EC50 (batch 2) [6]: 0.012 nM
CDC on KATOIII CLDN18.2 cells, LDH: EC50 (batch 1) [7]: 1.24 nM
CDC on KATOIII CLDN18.2 cells, LDH: EC50 (batch 2) [7]: 1.33 nM
B1: YL-G2-B (antibody, human IgG1, kappa)
heavy: EVQLQQSGPELEKPGASVKISCKASGYSFTGYKMNWVKQSNGKSLEWIGNIDPYYGGTTYNQKFKGKATLTVDKSSSTAYMQLKSLTSEDSAVYYCARYGKGNTMDYWGQGTSVTVSSASTKGPSVFPLAPSSKSTSGGTAALGCLVKDYFPEPVTVSWNSGALTSGVHTFPAVLQSSGLYSLSSVVTVPSSSLGTQTYICNVNHKPSNTKVDKRVEPKSCDKTHTCPPCPAPELVGGPSVFLLPPKPKDTLMISRTPEVTCVVVDVSHEDPEVKFNWYVDGVEVHNAKTKPPEEQYNSTLRVVSVLTVLHQDWLNGKEYKCKVSNKALPAPIEKTISKAKGQPREPQVYTLPPSREEMTKNQVSLTCLVKGFYPSDIAVEWESNGQPENNYKTTPLVLDSDGSFFLYSKLTVDKSRWQQGNVFSCSVMHEALHNHYTQKSLSLSPGK
light: DIVMTQSPSSLTVTAGEKVTMSCKSSQSLLNSGNQKNYLTWYQQRPGQPPKLLIYWASTRESGVPVRFTGSGSGTDFTLTISSVQAEDLAVYYCQNAYIYPLTFGTGTKLELKRTVAAPSVFIFPPSDEQLKSGTASVVCLLNNFYPREAKVQWKVDNALQSGNSQESVTEQDSKDSTYSLSSTLTLSKADYEKHKVYACEVTHQGLSSPVTKSFNRGEC
notes: also called YL-G2-B batch 1; YL-G2-B batch 2
